# From US8337813B2, “Contrast agents” (Northwestern University, priority 2007, dated 2012)
# Non-standard residues stand in square brackets, D forms with d. Primed or numbered codes have the meaning given here. No end group written: not given here. *: point of attachment. DTPA′ = diethylenetriaminepentaacetic acid (Gd(III) complex) N-cap, O=C([O-])CN(CCN(CC(=O)[O-])CC(=O)[O-])CCN(CC(=O)[O-])CC(=O)*.[Gd+3]; PEG3′ = not defined here
# Molecular target: T1, human recombinant MMP-7 (Homo sapiens, UniProt P09237)
# T1 sequence (P09237 95-267): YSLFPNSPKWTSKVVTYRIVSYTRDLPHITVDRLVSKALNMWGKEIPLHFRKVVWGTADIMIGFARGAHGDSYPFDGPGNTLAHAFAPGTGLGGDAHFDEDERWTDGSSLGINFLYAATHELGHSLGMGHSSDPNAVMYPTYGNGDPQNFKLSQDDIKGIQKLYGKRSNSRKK
# Assay: Enzymatic cleavage by MMP-7, analysed by ESI-MS
# Type: biochemical
# Description: During development of embodiments of the present invention, a 2 μL aliquot of human recombinant MMP-7 was thawed on ice, diluted to 50 μL with assay buffer containing 1 mM APMA, and incubated for 1 hour at 37° C. to activate the enzyme. To the activated enzyme solution was added 1 μL of a 20 mM solution of gadolinium(III)-diethylenetriaminepentaacetic acid-Ala-Pro-Leu-Ala-Leu-Trp-Ala-PEG3-Ala. The solution was incubated at 37° C. for 24 hours after which 10 μL was dissolved in 50 μL MeOH for analysis by ESI-MS.
# 1542.75; found negative mode 771.60, (m/2)]
substance,measurement,setting,value
Gadolinium(III)-diethylenetriaminepentaacetic Acid-Ala-Pro-Leu-Ala-Leu-Trp-Ala-PEG3-Ala ({DTPA′}-APLALWA[PEG3′]A; also: Gd(III) complexed by DTPA),cleavage by MMP-7 (ESI-MS),"activated MMP-7, 37° C., 24 hours",revealed a peak corresponding to the MMP-7 cleavage fragment Leu-Trp-Ala-PEG3-Ala
same,ESI-MS of control solution lacking MMP-7,no MMP-7,revealed only the expected uncleaved
